# Assay results taken from the Immune Epitope Database (IEDB).
# How the values were obtained:
# Test in all cases: IEDB peptide-MHC binding, purified MHC/competitive/radioactivity; ≥ and ≤ were set here for values at or beyond the usual limits of such assays
# [1] = target: HLA-A*02:03
# [2] = target: HLA-A*02:02
# [3] = target: HLA-A*68:02
# [4] = target: HLA-A*02:06
# [5] = target: HLA-A*02:01
# [6] = source organism: Hepacivirus hominis
# [7] = source organism: Vaccinia virus WR
# [8] = source organism: Influenza A virus
# [9] = source organism: Mammarenavirus brazilense
Sequence,"IC50 [1, 7] [nM]","IC50 [2, 7] [nM]","IC50 [3, 7] [nM]","IC50 [4, 7] [nM]","IC50 [5, 7] [nM]",also measured
MLLAYLVRI,–,–,–,–,–,"IC50 [1, 6]: 12 nM; IC50 [2, 6]: 6.6 nM; IC50 [3, 6]: 1830 nM; IC50 [4, 6]: 5 nM; IC50 [5, 6]: 3.3 nM"
WVMDTLNGIM,194,1330,101,129,175,–
NLTQLFKYV,238,320,4340,657,1180,–
NILMDSIFV,223,252,147,170,179,–
ETIQKDINIT,10,354,69,112,1270,–
NVMGMIGV,–,–,–,–,–,"IC50 [1, 8]: 512 nM; IC50 [2, 8]: 1980 nM; IC50 [3, 8]: 98 nM; IC50 [4, 8]: 1250 nM; IC50 [5, 8]: 1460 nM"
GILGFVFTLT,–,–,–,–,–,"IC50 [1, 8]: 911 nM; IC50 [2, 8]: 960 nM; IC50 [3, 8]: 730 nM; IC50 [4, 8]: 618 nM; IC50 [5, 8]: 640 nM"
LLPDALLFTL,–,–,–,–,–,"IC50 [1, 9]: 733 nM; IC50 [2, 9]: 4.7 nM; IC50 [3, 9]: 232 nM; IC50 [4, 9]: 79 nM; IC50 [5, 9]: 77 nM"
AAAATCALV,9.1,15,12,12,41,–
IMRVMANNV,1260,396,1180,2500,311,–
YVSPTEMVDV,50,63,235,5.2,21,–
ILISLINSLV,3.1,23,141,151,83,–
FLDWIKDIMT,146,424,4860,140,50,–
TICLKNEGV,120,494,5.8,311,547,–
FITVLTSVDI,237,1420,1240,1270,603,–
YTISSESLV,38,522,3.3,54,1060,–
KMAVEVGSI,2.8,31,806,119,155,–
FTNSQIFNII,457,143,16,1200,1570,–

Sequence,"IC50 [1, 7] [nM]","IC50 [2, 7] [nM]","IC50 [3, 7] [nM]","IC50 [4, 7] [nM]","IC50 [5, 7] [nM]",also measured
IVYGRSNAI,16,15,6.1,30,228,–
STISWMMKL,23,92,0.23,12,55,–
KTANNYETI,38,37,1320,329,2240,–
MAGVEVRYI,201,293,583,2050,2310,–
TLPELNLSL,23,135,309,802,62,–
FLNGSCGSV,–,–,–,–,–,IC50 ([1]; source organism: SARS-CoV1): 0.57 nM; IC50 ([2]; source organism: SARS-CoV1): 1 nM; IC50 ([3]; source organism: SARS-CoV1): 318 nM; IC50 ([4]; source organism: SARS-CoV1): 64 nM; IC50 ([5]; source organism: SARS-CoV1): 5.8 nM
TIAVSVYGA,9.9,25,32,99,104,–
FQESFYEDIA,555,2560,2910,303,4840,–
GTIILNKIV,3400,1190,926,1430,3890,–
YLRGHTESI,0.18,0.21,506,91,3.7,–
AAITLVVISV,246,501,715,27,369,–
TTLLNETAKV,0.17,1640,237,1650,2880,–
TLVKSGLTEV,2.9,64,2320,45,9.2,–
NVSGVPHSV,24,825,2.8,278,592,–
IISYIILFI,59,2.8,5.7,27,12,–
YAAEMVEYL,2.1,0.52,13,12,32,–
FVSTMPVET,391,1220,325,1540,841,–
